The results in this text go back to the Human Domainome abundance scans (Beltran et al. 2025).

The chains are these.
B1: GA-binding protein alpha chain, residues 172 to 250; numbered along this chain, Q06546 (parent)
chain: GYRKEQERLGIPYDPIQWSTDQVLHWVVWVMKEFSMTDIDLTTLNISGRELCSLNQEDFFQRVPRGEILWSHLELLRKY

± gives the uncertainty stated by the source.

In this data set the parent is B1. In words: abundance fitness (aPCA) (normalised: wild type 0, dead -1); higher = more abundant; growth selection in yeast, the domain comes from the species named. Conditions: Homo sapiens.
Regarding GYRKEQERLGIPYDPIQWSTDQVLHWVVWVMKEFSMTDIDLTTLNISGRELCSLNQEDFFPRVPRGEILWSHLELLRKY, the abundance fitness was -0.777 ± 0.12. The value for GYRKEQERLGIPYDPIQWSTDQVLHWVVWVMKEFSMTDIDLTTLNISGRELCSLNQEDFFCRVPRGEILWSHLELLRKY was -0.091 ± 0.075; that for GYRKEQERLGIPYDPIQWSTDQVLHWVVWVMKEFSMTDIDLTTLNISGRELCSLNQEDFFIRVPRGEILWSHLELLRKY was -0.178 ± 0.11; that for GYRKEQERLGIPYDPIQWSTDQVLHWVVWVMKEFSMTDIDLTTLNISGRELCSLNQEDFFVRVPRGEILWSHLELLRKY was -0.01 ± 0.042. Under GYRKEQERLGIPYDPIQWSTDQVLHWVVWVMKEFSMTDIDLTTLNISGRELCSLNQEDFFWRVPRGEILWSHLELLRKY stands -0.298 ± 0.043; under GYRKEQERLGIPYDPIQWSTDQVLHWVVWVMKEFSMTDIDLTTLNISGRELCSLNQEDFFKRVPRGEILWSHLELLRKY, -0.016 ± 0.14; under GYRKEQERLGIPYDPIQWSTDQVLHWVVWVMKEFSMTDIDLTTLNISGRELCSLNQEDFFSRVPRGEILWSHLELLRKY, 0.004 ± 0.045. As to GYRKEQERLGIPYDPIQWSTDQVLHWVVWVMKEFSMTDIDLTTLNISGRELCSLNQEDFFARVPRGEILWSHLELLRKY, the abundance fitness is -0.014 ± 0.038. Turning to GYRKEQERLGIPYDPIQWSTDQVLHWVVWVMKEFSMTDIDLTTLNISGRELCSLNQEDFFYRVPRGEILWSHLELLRKY, the abundance fitness was -0.203 ± 0.13.

Take GYRKEQERLGIPYDPIQWSTDQVLHWVVWVMKEFSMTDIDLTTLNISGRELCSLNQEDFFLRVPRGEILWSHLELLRKY: the abundance fitness is -0.009 ± 0.049. The value for GYRKEQERLGIPYDPIQWSTDQVLHWVVWVMKEFSMTDIDLTTLNISGRELCSLNQEDFFGRVPRGEILWSHLELLRKY was -0.029 ± 0.033. As for GYRKEQERLGIPYDPIQWSTDQVLHWVVWVMKEFSMTDIDLTTLNISGRELCSLNQEDFFERVPRGEILWSHLELLRKY, the abundance fitness was -0.041 ± 0.059.

Consider GYRKEQERLGIPYDPIQWSTDQVLHWVVWVMKEFSMTDIDLTTLNISGRELCSLNQEDFFTRVPRGEILWSHLELLRKY, for which the abundance fitness turned out to be 0.014 ± 0.053. GYRKEQERLGIPYDPIQWSTDQVLHWVVWVMKEFSMTDIDLTTLNISGRELCSLNQEDFFMRVPRGEILWSHLELLRKY: the abundance fitness was -0.022 ± 0.06. The value for GYRKEQERLGIPYDPIQWSTDQVLHWVVWVMKEFSMTDIDLTTLNISGRELCSLNQEDFFRRVPRGEILWSHLELLRKY was -0.011 ± 0.029.

For GYRKEQERLGIPYDPIQWSTDQVLHWVVWVMKEFSMTDIDLTTLNISGRELCSLNQEDFFDRVPRGEILWSHLELLRKY, the abundance fitness is -0.155 ± 0.088. In the case of GYRKEQERLGIPYDPIQWSTDQVLHWVVWVMKEFSMTDIDLTTLNISGRELCSLNQEHFFQRVPRGEILWSHLELLRKY, the abundance fitness was -0.149 ± 0.1.

Turning to GYRKEQERLGIPYDPIQWSTDQVLHWVVWVMKEFSMTDIDLTTLNISGRELCSLNQEIFFQRVPRGEILWSHLELLRKY, the abundance fitness is -0.022 ± 0.094. With GYRKEQERLGIPYDPIQWSTDQVLHWVVWVMKEFSMTDIDLTTLNISGRELCSLNQENFFQRVPRGEILWSHLELLRKY, the abundance fitness was -0.188 ± 0.078. GYRKEQERLGIPYDPIQWSTDQVLHWVVWVMKEFSMTDIDLTTLNISGRELCSLNQEQFFQRVPRGEILWSHLELLRKY: the abundance fitness is -0.03 ± 0.053. On to GYRKEQERLGIPYDPIQWSTDQVLHWVVWVMKEFSMTDIDLTTLNISGRELCSLNQELFFQRVPRGEILWSHLELLRKY, for which the abundance fitness was -0.087 ± 0.044.

For GYRKEQERLGIPYDPIQWSTDQVLHWVVWVMKEFSMTDIDLTTLNISGRELCSLNQEYFFQRVPRGEILWSHLELLRKY, the abundance fitness was -0.165 ± 0.085. In the case of GYRKEQERLGIPYDPIQWSTDQVLHWVVWVMKEFSMTDIDLTTLNISGRELCSLNQESFFQRVPRGEILWSHLELLRKY, the abundance fitness was found to be 0.003 ± 0.042. GYRKEQERLGIPYDPIQWSTDQVLHWVVWVMKEFSMTDIDLTTLNISGRELCSLNQETFFQRVPRGEILWSHLELLRKY: the abundance fitness is -0.053 ± 0.09. The value for GYRKEQERLGIPYDPIQWSTDQVLHWVVWVMKEFSMTDIDLTTLNISGRELCSLNQEMFFQRVPRGEILWSHLELLRKY was -0.004 ± 0.083; that for GYRKEQERLGIPYDPIQWSTDQVLHWVVWVMKEFSMTDIDLTTLNISGRELCSLNQERFFQRVPRGEILWSHLELLRKY was -0.092 ± 0.037. Under GYRKEQERLGIPYDPIQWSTDQVLHWVVWVMKEFSMTDIDLTTLNISGRELCSLNQEVFFQRVPRGEILWSHLELLRKY stands -0.091 ± 0.044. The value for GYRKEQERLGIPYDPIQWSTDQVLHWVVWVMKEFSMTDIDLTTLNISGRELCSLNQEPFFQRVPRGEILWSHLELLRKY was -0.943 ± 0.19. As to GYRKEQERLGIPYDPIQWSTDQVLHWVVWVMKEFSMTDIDLTTLNISGRELCSLNQEWFFQRVPRGEILWSHLELLRKY, the abundance fitness was -0.19 ± 0.046. Regarding GYRKEQERLGIPYDPIQWSTDQVLHWVVWVMKEFSMTDIDLTTLNISGRELCSLNQEKFFQRVPRGEILWSHLELLRKY, the abundance fitness was -0.129 ± 0.078. The value for GYRKEQERLGIPYDPIQWSTDQVLHWVVWVMKEFSMTDIDLTTLNISGRELCSLNQEDFFQAVPRGEILWSHLELLRKY was -0.132 ± 0.16. The value for GYRKEQERLGIPYDPIQWSTDQVLHWVVWVMKEFSMTDIDLTTLNISGRELCSLNQEDFFQDVPRGEILWSHLELLRKY was -0.797 ± 0.35; that for GYRKEQERLGIPYDPIQWSTDQVLHWVVWVMKEFSMTDIDLTTLNISGRELCSLNQEDFFQEVPRGEILWSHLELLRKY was -0.197 ± 0.083; that for GYRKEQERLGIPYDPIQWSTDQVLHWVVWVMKEFSMTDIDLTTLNISGRELCSLNQEDFFQFVPRGEILWSHLELLRKY was -0.192 ± 0.068.
